Among the data in PMC6326779 (2018) are Ki values, retold here.

The target of this experiment is T1, CRBN (Homo sapiens, UniProt Q96SW2).
T1 chain: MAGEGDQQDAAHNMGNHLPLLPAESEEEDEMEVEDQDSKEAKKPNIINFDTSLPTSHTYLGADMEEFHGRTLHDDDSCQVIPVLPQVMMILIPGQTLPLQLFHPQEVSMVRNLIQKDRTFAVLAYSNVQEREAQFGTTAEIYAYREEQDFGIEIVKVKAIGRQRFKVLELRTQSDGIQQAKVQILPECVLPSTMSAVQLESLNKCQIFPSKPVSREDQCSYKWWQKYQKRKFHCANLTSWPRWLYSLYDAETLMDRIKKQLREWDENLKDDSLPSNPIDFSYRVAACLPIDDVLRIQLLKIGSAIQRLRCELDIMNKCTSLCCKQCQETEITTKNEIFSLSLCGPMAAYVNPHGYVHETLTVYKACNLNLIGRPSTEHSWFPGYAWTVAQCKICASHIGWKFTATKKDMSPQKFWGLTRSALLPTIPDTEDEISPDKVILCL
The experiment is described as follows: TR-FRET.

B1: IKZF1 ZF2-ZF3 143-243(Δ197-238) (protein)
chain: RPFQCNQCGASFTQKGNLLRHIKLHSGEKPFKCHLCNYACRRRDALTGHLRTHSVGKPHKCGYCGRSYKQRSSLEEHKERCHNYLESMGLPGTLYPVIKEE
modifications: pomalidomide
In the case of B1, the affinity, expressed as Ki, was 165 nM.

Broadly, the Ki is a dissociation constant, usually derived from enzyme kinetics or from competition with a known ligand.
